Values quoted from earlier work in PMC8694941 (RSC Advances, 2021).

Conditions: commonly used comparator tracer

For [^68Ga]Ga-DOTA-c(RGDfK) (head to tail), the “partition coefficient (log D)” value is given as “around −3.43”.
